Results reported in patent publication US7871610B2, “Antibodies to Tie1 ectodomain” (Dyax Corp., priority 2003, dated 2011).

What was measured:
[1] = biological target: T1, Tie1-EpoR chimeric receptor (UniProt P14753+P35590); test: Ba/F3 bioassay (Tie1/EpoR chimeric BaF3 cell assay), MTT viability; format: cell-based, human; conditions: 100 ng/ml E3 IgG together with 100 (1:1) or 500 (1:5) ng/ml of the other antibody
T1 construct: the PCR amplified extracellular part of human Tie1 (bp 37-2316 of X60975); expressed in transfected cells
T1 sequence (P35590+P14753 with tags, fused parts or gaps): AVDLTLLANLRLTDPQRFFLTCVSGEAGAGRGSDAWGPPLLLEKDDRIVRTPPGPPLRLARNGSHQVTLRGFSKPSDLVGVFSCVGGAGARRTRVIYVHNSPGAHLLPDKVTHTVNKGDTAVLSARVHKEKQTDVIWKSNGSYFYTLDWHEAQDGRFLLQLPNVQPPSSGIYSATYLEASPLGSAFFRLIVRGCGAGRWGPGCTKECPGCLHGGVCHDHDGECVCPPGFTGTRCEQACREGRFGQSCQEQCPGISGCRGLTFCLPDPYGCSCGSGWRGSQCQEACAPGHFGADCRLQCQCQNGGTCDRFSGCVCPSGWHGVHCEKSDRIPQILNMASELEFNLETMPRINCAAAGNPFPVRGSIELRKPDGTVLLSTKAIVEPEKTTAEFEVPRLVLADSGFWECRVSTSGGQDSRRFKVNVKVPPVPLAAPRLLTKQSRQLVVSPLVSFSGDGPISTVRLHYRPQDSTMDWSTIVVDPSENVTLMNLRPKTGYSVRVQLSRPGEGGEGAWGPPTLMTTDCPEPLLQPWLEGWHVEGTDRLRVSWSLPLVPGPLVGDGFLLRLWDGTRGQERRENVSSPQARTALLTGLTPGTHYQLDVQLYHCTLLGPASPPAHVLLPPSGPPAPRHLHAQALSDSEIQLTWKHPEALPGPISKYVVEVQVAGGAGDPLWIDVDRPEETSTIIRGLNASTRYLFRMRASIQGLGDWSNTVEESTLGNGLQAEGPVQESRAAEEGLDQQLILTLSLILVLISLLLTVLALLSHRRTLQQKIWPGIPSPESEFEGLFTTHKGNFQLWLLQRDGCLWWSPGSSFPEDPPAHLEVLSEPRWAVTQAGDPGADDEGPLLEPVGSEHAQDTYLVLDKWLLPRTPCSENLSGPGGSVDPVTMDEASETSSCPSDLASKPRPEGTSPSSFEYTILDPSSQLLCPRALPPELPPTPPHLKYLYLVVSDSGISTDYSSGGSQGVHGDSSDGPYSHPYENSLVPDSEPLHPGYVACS
Description: To generate Tie1-EpoR expressing Ba/F3 cells for the bioassay, Ba/F3 pre-B cells were stably transfected with a nucleic acid that expresses chimeric receptor containing the extracellular domain of human Tie1 fused with the transmembrane and cytoplasmic domains of the mouse erythropoietin receptor. The nucleic acid used was a Tie1-EpoR chimeric cDNA in a pEF-BOS expression vector. The nucleic acid encoding the chimeric receptor was constructed by cloning the PCR amplified extracellular part of human Tie1 (bp 37-2316 of X60975) as EcoRI-BglII fragment into mEpoR-pcDNA vector. The cDNA encoding for the chimeric receptor consisting of the extracellular part of Tie1 fused with the transmembrane and intracellular domains of EpoR was subcloned into the pEF-BOS expression vector. Vector was linearized and co-transfected into Ba/F3 cells with pcDNA3.1(+) Zeo vector (Invitrogen). Stable cell pools were generated by selection with 250 μg/ml Zeocin. The expression of Tie1/EpoR fusion protein in several clones was analyzed by Western blotting with an antibody against EpoR.
To perform the assays, Ba/F3 cells expressing the Tie 1-EpoR chimera were split in 96-well microtiter plates at 50 000 cells/well in the presence of the indicated concentrations of anti-Tie1 antibodies. As controls, Zeocin resistant pools not expressing the Tie1-EpoR were used. After 48 h, the viability of the cells was determined by adding MTT (3-(4,5-dimethylthiazol-2-yl)-2,5-diphenyl tetrazolium bromide (Sigma), 0.5 mg/ml), followed by further 2 h of culture, addition of an equal volume of cell lysis solution (10% SDS, 10 mM HCl) and incubation overnight at 37° C. Absorbance was measured at 540 nm.
Although no ligand for Tie1 has been identified, we used the following efficient screening method for Tie1-binding proteins. Interleukin-3 dependent pre-B-lymphocyte (Ba/F3) cells were transfected with a construct that expresses a Tie1-EpoR fusion protein. Since Ba/F3 cells are IL-3 dependent, they die unless IL-3 is provided. However, Tie-EpoR receptor expressing Ba/F3 cells can survive and proliferate if the medium contains a Tie1-binding protein, either a natural ligand or an artificial mimetic. Cell survival can be quantitated, e.g., by colorimetric MTT-assay, which measures mitochondrial activity.

[2] = biological target: Tie1 (Homo sapiens, UniProt P35590); test: Immunofluorescence staining of Tie1-transfected COS1 cells; format: binding; conditions: COS1 cells transfected with pcDNA3-Tie1-V5; antibodies 5 μg/ml
Sequence of Tie1 (P35590 22-1138): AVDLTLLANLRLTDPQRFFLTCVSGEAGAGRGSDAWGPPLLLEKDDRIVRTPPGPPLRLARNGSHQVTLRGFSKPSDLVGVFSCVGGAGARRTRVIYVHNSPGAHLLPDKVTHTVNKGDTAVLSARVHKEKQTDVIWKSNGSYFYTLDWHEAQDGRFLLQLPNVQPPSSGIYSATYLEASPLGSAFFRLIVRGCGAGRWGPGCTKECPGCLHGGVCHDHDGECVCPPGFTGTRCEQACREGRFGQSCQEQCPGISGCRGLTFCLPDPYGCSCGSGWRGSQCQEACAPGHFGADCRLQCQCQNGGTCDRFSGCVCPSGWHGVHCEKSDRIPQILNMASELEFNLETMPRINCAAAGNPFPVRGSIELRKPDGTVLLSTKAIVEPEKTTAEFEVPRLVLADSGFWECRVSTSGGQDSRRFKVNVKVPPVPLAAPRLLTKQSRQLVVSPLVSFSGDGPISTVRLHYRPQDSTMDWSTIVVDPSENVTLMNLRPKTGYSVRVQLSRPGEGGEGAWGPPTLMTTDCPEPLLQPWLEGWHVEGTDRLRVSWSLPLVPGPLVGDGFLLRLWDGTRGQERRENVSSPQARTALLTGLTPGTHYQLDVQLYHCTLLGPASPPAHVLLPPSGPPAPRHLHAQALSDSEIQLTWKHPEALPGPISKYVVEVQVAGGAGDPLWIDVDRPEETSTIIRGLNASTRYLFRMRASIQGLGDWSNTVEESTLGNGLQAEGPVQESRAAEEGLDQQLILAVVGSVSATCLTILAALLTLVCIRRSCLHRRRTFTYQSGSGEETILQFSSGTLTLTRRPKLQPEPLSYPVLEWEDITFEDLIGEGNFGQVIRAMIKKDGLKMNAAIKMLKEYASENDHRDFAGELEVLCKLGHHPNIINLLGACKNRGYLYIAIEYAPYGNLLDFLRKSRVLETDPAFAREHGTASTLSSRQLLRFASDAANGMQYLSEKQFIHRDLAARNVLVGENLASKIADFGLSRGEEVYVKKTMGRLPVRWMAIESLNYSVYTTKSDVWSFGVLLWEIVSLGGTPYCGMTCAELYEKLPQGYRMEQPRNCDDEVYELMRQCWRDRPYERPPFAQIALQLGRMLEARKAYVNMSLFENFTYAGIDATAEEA
Method: COS1 cells on the glass coverslips were transiently transfected with pcDNA3-Tie1-V5 (the V5-epitope was added to the 3′ terminus of pcDNA3-Tie1) (1 μg DNA per 10 cm cell culture plate) using FUGENE™ 6 (Roche) according to manufacturer's instruction and incubated for 48 h before staining. Cells were fixed in 4% paraformaldehyde for 10 min at 4° C. If required, the cells were permeabilized with 0.2% Triton X-100 in PBS for 5 min. Unspecific binding sites were blocked by incubation with 1% BSA in PBS for 30 min. The cells were then stained with anti-Tie1 antibodies (5 μg/ml) and anti-V5 antibodies for 1 h at room temperature, followed by incubation with FITC— conjugated anti-human antibodies (DAKO, 40 μg/ml) and TRITC-conjugated anti-mouse antibodies (DAKO, 15 μg/ml) for 30 min. Hoechst 33258 fluorochrome (Sigma, 0.5 μg/ml) was used for the staining of the nuclei.

B1: P-B1: anti-Tie1 antibody; VH SEQ ID NO:20, VL SEQ ID NO:22 (antibody, V domains shown)
VH: EVQLLESGGGLVQPGGSLRLSCAASGFTFSRYPMVWVRQAPGKGLEWVSVISPSGGQTFYADSVKGRFTISRDNSKNTLYLQMNSLRAEDTAVYYCARGVLTTAFDIWGQGTMVTVSSASTKGPSVFPLAPSSKAPLGAQRPWAAWSR
VL: QDIQMTQSPSSLSASVGDRVTITCRASQNINSYLNWYQQKPGQAPKLLIYAASNLETAVPSRFSGSGSGTDFTLTISSLQPEDFATYYCQQFNTYPLTFGGG
modifications: Synthetically generated peptide
effect on the survival effect of E3 IgG in Tie1-EpoR Ba/F3 assay [1]: inhibited the viability effect of E3 IgG to some extent
IF: Tie1-transfected [2]: weak
